Laboratory results as given in paper PMC12138080 (Acta Pharmaceutica Sinica. B, 2025).

Target: T1, Human GRK2 protein (His Tag) (human, UniProt P25098 1-689)
T1 sequence: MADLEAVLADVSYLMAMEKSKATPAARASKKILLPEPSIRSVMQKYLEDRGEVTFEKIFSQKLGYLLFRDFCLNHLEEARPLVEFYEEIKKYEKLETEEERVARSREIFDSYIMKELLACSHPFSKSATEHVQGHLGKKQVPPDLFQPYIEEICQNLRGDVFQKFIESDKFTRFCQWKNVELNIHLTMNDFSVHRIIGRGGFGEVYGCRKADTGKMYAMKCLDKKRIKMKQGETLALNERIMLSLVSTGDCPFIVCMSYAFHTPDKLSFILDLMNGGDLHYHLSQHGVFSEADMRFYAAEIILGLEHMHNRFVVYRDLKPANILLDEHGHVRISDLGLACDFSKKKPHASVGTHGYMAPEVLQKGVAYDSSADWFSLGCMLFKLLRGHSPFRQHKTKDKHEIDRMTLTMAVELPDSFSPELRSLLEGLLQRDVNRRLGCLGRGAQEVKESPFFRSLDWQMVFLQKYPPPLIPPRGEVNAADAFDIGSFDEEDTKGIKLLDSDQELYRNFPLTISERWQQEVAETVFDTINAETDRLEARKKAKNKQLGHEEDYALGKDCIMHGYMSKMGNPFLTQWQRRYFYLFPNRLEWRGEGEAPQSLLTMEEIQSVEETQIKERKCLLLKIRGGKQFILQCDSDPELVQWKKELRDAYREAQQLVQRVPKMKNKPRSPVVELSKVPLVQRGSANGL
Test: SPR

Kd: 31.2 nM
B1: Human TRAF2 protein (His Tag) (natural protein)
chain: MAAASVTPPGSLELLQPGFSKTLLGTKLEAKYLCSACRNVLRRPFQAQCGHRYCSFCLASILSSGPQNCAACVHEGIYEEGISILESSSAFPDNAARREVESLPAVCPSDGCTWKGTLKEYESCHEGRCPLMLTECPACKGLVRLGEKERHLEHECPERSLSCRHCRAPCCGADVKAHHEVCPKFPLTCDGCGKKKIPREKFQDHVKTCGKCRVPCRFHAIGCLETVEGEKQQEHEVQWLREHLAMLLSSVLEAKPLLGDQSHAGSELLQRCESLEKKTATFENIVCVLNREVERVAMTAEACSRQHRLDQDKIEALSSKVQQLERSIGLKDLAMADLEQKVLEMEASTYDGVFIWKISDFARKRQEAVAGRIPAIFSPAFYTSRYGYKMCLRIYLNGDGTGRGTHLSLFFVVMKGPNDALLRWPFNQKVTLMLLDQNNREHVIDAFRPDVTSSSFQRPVNDMNIASGCPLFCPVSKMEAKNSYVRDDAIFIKAIVDLTGL
